One assay concerns the target HLA-DR2 (Homo sapiens, UniProt P01903+P01911). Kind of assay: HLA-DR2 binding of MBP peptides.
In a further assay the test system is HLA-DQ6. Kind of assay: HLA-DQ6 binding of MBP peptides. On the set-up: species or system human.
Assay [1] has as its system double-transgenic (DTg; human HLA-DR15/MBP-specific T-cell receptor) humanized mice. Kind of assay: SCH-induced EAE in double-transgenic humanized mice, clinical score. The following applies: once weekly from Day 0; ATX-MS-1467 100 μg/dose, MBP82-98 12 μg or 100 μg/dose. It counts as in vivo, mouse. As for the experimental part: In double-transgenic (DTg; human HLA-DR15/MBP-specific T-cell receptor) ‘humanized’ mice, EAE was induced using an emulsification of spinal cord homogenate (SCH) and CFA on Day 0. Mice also received a pertussis toxin injection on Days 0 and 2.
Throughout the study, neurological deficits were measured using a standardized clinical score scale: 0=no clinical signs, 1=limp tail, 2=impaired righting reflex, 3=partial hind limb paralysis, 4=complete hind limb paralysis, 5=moribund/death.
If animals reached a score of 4 they were euthanized to reach a humane endpoint.
[…] were treated prophylactically either with subcutaneous (sc) phosphate-buffered saline (PBS) vehicle or ATX-MS-1467 (n=10 per treatment group) starting 3 weeks before EAE induction. […]
ATX-MS-1467 was tested head-to-head with MBP82-98 and GA. […] For both compounds, the human equivalent dose (HED) was calculated based on body surface area: MBP82-98=12 μg/dose and GA=75 μg (3.75 mg/kg)/dose.
Statistical analyses for significant differences on clinical scores by treatment over time and cumulative clinical scores (area under the curve) were performed using Kruskal-Wallis with Dunn's post hoc analysis of comparisons. Disease onset was analyzed by Kaplan-Meier curve and significance was determined using the log-rank (Mantel-Cox) test. Cellular brain infiltrates were analyzed by Student's t-test. […]

Another assay relates to DR2/Ob1Het/Het mice. Kind of assay: Serum cytokine levels after s.c. treatment/challenge (Milliplex). Type of assay: in vivo, mouse. As for the experimental part: Double transgenic heterozygous mice, referred to here as DR2/Ob1Het/Het, were used for these studies. These mice express human leukocyte antigen (HLA) isotypes DRA*0101 and DRB1*1501 under the mouse major histocompatibility […] promoter and the MBP84-102-specific TCR (Ob.1A12) expressed under mouse TCRα and β promoter/enhancer elements.
DR2/Ob1Het/Het mice were treated and/challenged by a single or multiple subcutaneous (s.c.) injections of 100 μg of ATX-MS-1467 or 25 μg of a HLA binding protein (HLAbp) unrelated to EAE and/or 30-1000 μg of myelin basic protein (MBP, Sigma, M1891). Treatment paradigms varied between studies and groups (see specifics in each study). Chronic treatment with ATX-MS-1467 or with HLAbp followed a 3× weekly regimen.
Cytokine levels were quantified in serum of DR2/Ob1Het/Het mice at different time points using a Milliplex MAP mouse Cytokine/Chemokine magnetic kit (MCYTOMAG-70-PMX).

Sequence of HLA-DR2 (P01903 26-254): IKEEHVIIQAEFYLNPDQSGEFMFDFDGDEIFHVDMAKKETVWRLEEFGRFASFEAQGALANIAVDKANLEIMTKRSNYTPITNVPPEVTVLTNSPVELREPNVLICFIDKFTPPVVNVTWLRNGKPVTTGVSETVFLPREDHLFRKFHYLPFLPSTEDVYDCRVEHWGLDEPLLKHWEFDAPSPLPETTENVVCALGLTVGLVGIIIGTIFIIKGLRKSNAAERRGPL
Sequence of HLA-DR2 (P01911 30-266): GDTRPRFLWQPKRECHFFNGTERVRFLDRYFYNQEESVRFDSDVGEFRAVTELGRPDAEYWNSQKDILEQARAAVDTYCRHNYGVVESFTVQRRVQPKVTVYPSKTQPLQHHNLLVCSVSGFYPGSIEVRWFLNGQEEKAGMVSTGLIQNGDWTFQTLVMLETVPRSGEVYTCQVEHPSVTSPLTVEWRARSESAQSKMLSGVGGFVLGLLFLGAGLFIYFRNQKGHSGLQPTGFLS

Turning to “H-Glu-Asn-Pro-Val-Val-His-Phe-Phe-Lys-Asn-Ile-Val-Thr-Pro-Arg-Thr-Pro-NH2 (H-ENPVVHFFKNIVTPRTP-NH2) [MBP 83-99]”, the HLA-DR2 binding entry with HLA-DR2 is “HLA-DR2 binding”.

With “H-Ala-Ser-Asp-Tyr-Lys-Ser-Ala-His-Lys-Gly-Phe-Lys-Gly-Val-Asp-NH2 (H-ASDYKSAHKGFKGVD-NH2) [MBP 131-145]”, the HLA-DQ6 binding entry in the assay on HLA-DQ6 is given as “HLA-DQ6 binding”.

“H-Gly-Phe-Lys-Gly-Val-Asp-Ala-Gln-Gly-Thr-Leu-Ser-Lys-Ile-Phe-NH2 (H-GFKGVDAQGTLSKIF-NH2) [MBP 140-154]”: the HLA-DR2 binding entry with HLA-DR2 is listed as “HLA-DR2 binding”.

For the molecule “MBP82-98: 17-amino acid synthetic peptide identical to MBP (dirucotide)”, in assay [1], the “disease severity vs vehicle” value is listed as “did not show significant effects”.

For “H-Pro-Arg-His-Arg-Asp-Thr-Gly-Ile-Leu-Asp-Ser-Ile-Gly-Arg-Phe-NH2 (H-PRHRDTGILDSIGRF-NH2) [MBP 30-44]”, the HLA-DQ6 binding entry with HLA-DQ6 is “HLA-DQ6 binding”.

B1: MBP: myelin basic protein (MBP, Sigma, M1891), full length (protein, UniProt P02686 1-304, looked up)
Myelin basic protein: MGNHAGKRELNAEKASTNSETNRGESEKKRNLGELSRTTSEDNEVFGEADANQNNGTSSQDTAVTDSKRTADPKNAWQDAHPADPGSRPHLIRLFSRDAPGREDNTFKDRPSESDELQTIQEDSAATSESLDVMASQKRPSQRHGSKYLATASTMDHARHGFLPRHRDTGILDSIGRFFGGDRGAPKRGSGKDSHHPARTAHYGSLPQKSHGRTQDENPVVHFFKNIVTPRTPPPSQGKGRGLSLSRFSWGAEGQRPGFGYGGRASDYKSAHKGFKGVDAQGTLSKIFKLGGRDSRSGSPMARR
Take B1: the “dose dependence of serum cytokine secretion” value with DR2/Ob1Het/Het mice (2 h after s.c. injection, 30-1000 μg) is given as “dose-dependent secretion of cytokines”. Besides, in the assay on DR2/Ob1Het/Het mice (single s.c. injection, FIG. 4 (MBP), FIG. 5 (ATX-MS-1467 100 μg/mouse)), the “cytokine secretion in the blood after acute treatment” value is “induces the secretion of both pro and anti-inflammatory cytokines”.

Source of the values: patent US20210093695A1, “Method” (APITOPE TECHNOLOGY (BRISTOL) LIMITED, priority 2017, published 2021).
